Reference: patent US20220112288A1 (published 2022)

B1: 75110_06K03A (antibody, V domains shown)
VH: QVQLQESGPGLVKPSETLSLTCTVSGGSISTYYWSWIRQPAGKGLEWIGRINTSGSTTYNPSLKSRVTMSVDTSKNQFSLKLSSVTAADTAVYYCARELERYYYYGMDVWGQGTTVTVSS
VL: DIQMTQSPSSLSASVGDRVTITCQASQDISNYLNWYQQKPGKAPKLLIYYASILETGVPSRFSGSGSGTDFTFTISSLQPEDIATYYCQQYDSLPLTFGGGTKVEIK
notes: Tested as non-clonal AlivaMab Mouse Kappa hybridoma supernatant (detected with anti-mouse Fc gamma and anti-human kappa)
B2: 75110_07J02A (antibody, V domains shown)
VH: EVQLVESGGGLVQPGGSLRLSCAASGFTFSSYWMSWVRQAPGKGLEWVANIKEDGSEKYYVDSVKGRFTISRDNAKNSLYLQMNSLRAEDTAVYYCARDGSYSGYGMDVWGQGTTVTVSS
VL: AIQMTQSPSSLSASVGDRVTITCRASQGIRNDLGWYQQKPGKAPKLLIYAASSLQSGVPSRFSGRGSGTDFALTISSLQPEDFATYYCLLDYNYPYTFGQGTRLEIK
notes: as for B1
B3: 75110_07N04A (antibody, V domains shown)
VH: QVQLQESGPGLVKPSETLSLTCSVSGVSSTSFYWSWIRQPAGKGLDWIGRIYTSGSTNYNPSLKSRVTMSVDTSKNQFSLKLSSVTAADTAVYYCARDPGYSDAFAIWGQGTMVTVSS
VL: not shown
notes: as for B1
B4: 75110_08F20A (antibody, V domains shown)
VH: QVQLQESGPGLVKPSETLSLTCSVSGGSISTYYWSWIRQPAGKGLEWIGRICTTENTNYNPSLKSRVTMSIDSSKNQFSLKLSSVTAADTAVYYCARDLERLNYYGMDVWGQGATVTVSS
VL: DIQMTQSPSSLSASVGDRVTITCQASQDISKYLNWYQQKPGIAPKLLIYDASNLETGVPSRFSGSGSGTDFTFTISSLQPEDFATYYCQQYDSLPITFGQGTRLEIK
notes: as for B1
B5: 75110_08G08A (antibody, V domains shown)
VH: QVQLQESGPGLVKPSETLSLTCSVSGGSISTYYWSWIRQPAGKGLEWIGRICTTENTNYNPSLKSRVTMSIDSSKNQFSLKLSSVTAADTAVYYCARDLERLNYYGMDVWGQGATVTVSS
VL: DIQMTQSPSSLSASVGDRVTITCQASQDISNYLNWYQQKPGIAPKLLIYDASNLETGVPSRFSGSGSGTDFTFTISSLQPEDIATYYCQQYDSLPITFGQGTRLEIK
notes: as for B1

Columns and labels:
[1] = target: T1, human CD4 on cells (SKW3 cells; human PBMCs) (human, UniProt P01730 26-458); experiment: FACS confirmation, supernatant on SKW3 cells; background gMFI 2500
T1 construct: whole, on cells; SKW3 CD4 knockout cells served as the negative cell line in the primary screen; also called hCD4; huCD4

[2] = target: T1, human CD4 on cells (SKW3 cells; human …); experiment: FACS binning on SKW3 cells; competitor RPA-T4-PE-Dazzle 594; background 783, max binding 15000
[3] = target: T1, human CD4 on cells (SKW3 cells; human …); experiment: FACS confirmation, supernatant on human PBMCs;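 also: flow cytometry with hybridoma supernatants incubated on human PBMCs for 30 min at 4 °C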
[4] = target: T1, human CD4 on cells (SKW3 cells; human …); experiment: FACS primary screen, hybridoma supernatant, SKW3 vs SKW3 CD4 KO cells;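 also: flow cytometry on mixed SKW3 and dye-labeled SKW3 CD4 knockout cells after 30 min at 4 °C with supernatant, ratio of binding signal on parental versus knockout cells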
[5] = target: T1, human CD4 on cells (SKW3 cells; human …); experiment: FACS confirmation, supernatant on SKW3 cells; background gMFI 3300
[6] = target: T1, human CD4 on cells (SKW3 cells; human …); experiment: FACS binning on SKW3 cells; competitor OKT4a; background 5000, max binding 35000
[7] = target: T1, human CD4 on cells (SKW3 cells; human …); experiment: FACS binning on SKW3 cells; competitor OKT4-A488; background 2163, max binding 8200
huCD4-HIS = target: T2, huCD4-HIS (human, UniProt P01730 26-390, limits assumed); experiment: ELISA binning; competitor ibalizumab; 100 ng/mL huCD4-HIS, anti-HIS HRP; background 45, max binding 3000000
T2 construct: the ELISA is not described in the text of this stretch; also called human CD4-HIS

Row | Binder | gMFI on SKW3 WT, anti-hu Kappa FITC [1] | RPA-T4-PE-Dazzle 594 signal with supernatant [2] | PBMCs CD4+ gate RL1 binding, anti-mFc 647 [3] | PBMCs CD4+ percent bound of viable [3] | SKW3 WT vs KO ratio, anti-hKappa-FITC [4] | SKW3 WT vs KO ratio, anti-mFc-647 [4] | gMFI on SKW3 WT, anti-mFc 647 [5] | OKT4a signal (anti-hu A647) with supernatant [6] | OKT4-A488 signal with supernatant [7] | Ibalizumab ELISA binning signal (huCD4-HIS)
1 | B1 | 8640 gMFI | 15800 | 296000 | 32% | 2.7 | 7.5 | 33600 gMFI | 33200 | 9140 | 1.65e+06
2 | B2 | 3980 gMFI | 15900 | 89200 | 27% | 1.3 | 2.3 | 13400 gMFI | 38000 | 8050 | 1.98e+06
3 | B3 | 6230 gMFI | 15500 | 344000 | 30% | 2.8 | 7.8 | 30400 gMFI | 36100 | 9010 | 1.66e+06
4 | B4 | 6170 gMFI | 15500 | 253000 | 32% | 1.7 | 3.1 | 31500 gMFI | 44800 | 7410 | 1.41e+06
5 | B5 | 5840 gMFI | 16200 | 314000 | 30% | 2.4 | 5.7 | 19400 gMFI | 38400 | 8890 | 1.69e+06
